# Experimental data: patent publication US20220160939A1, “SELF-ASSEMBLING PEPTIDES AS BRONCHIAL OBSTRUCTION AGENTS” (3-D MATRIX, LTD., priority 2014, published 2022)
# Experiments:
# Assay type in all cases: physicochemical
# [1] = Appearance of 1.5% peptide solutions with various salts at room temperature; conditions: for Appearance: room temperature
# Protocol: The effect of salt ionic strength level on the properties of peptide solutions was evaluated to identify optimized salt ionic strength levels for the peptides as described herein. Increasing the salt ionic strength level of PuraMatrix® (SEQ ID NO:1) and other peptides may generally improve its function and mechanical strength for various clinical applications. To adjust the salt ionic strength of the peptide solutions by way of example, various salt buffer solutions including NaCl, KCl, MgCl2, CaCl2 and DPBS (10×) were added to 2 mL of 1.5% peptide solutions.
# [2] = Rheological properties of ionic strength adjusted hydrogels after DMEM treatment for 10 min; conditions: 1% hydrogels
# Protocol: (§1) Based on the results of the effect on the rheological properties of the peptide solutions after adjusting their ionic strength levels, the effect on the rheological properties of the peptide hydrogels after DMEM treatment for 10 min was evaluated. […] The results are shown in FIG. 15 for PuraMatrix® (SEQ ID NO:1) 1% hydrogels and in FIG. 16 for IEIK13 (SEQ ID NO:2) 1% hydrogels, both after DMEM treatment for 10 min. Frequency sweep tests were performed from 1 rad/sec to 10 rad/sec at 1 Pa and the storage modulus at 1 rad/sec was selected for data.
# (§2) Based on the results of the effect on the rheological properties of the peptide solutions and hydrogels after adjusting their ionic strength levels with NaCl, the effect of various salts (KCl, MgCl2, and CaCl2) was also evaluated. The rheological property of PuraMatrix® (SEQ ID NO:1) solutions increases with ionic strength adjustment at 0.15 M of all the salts. Increases of the rheological property of PuraMatrix® (SEQ ID NO:1) solutions with various salts were not predominantly different. However, increases of the rheological property of PuraMatrix® (SEQ ID NO:1) solutions may vary depending on the salting out constant, K of each salt. Constant K is a constant in Cohen's equation: log S=B−KI, where S is solubility, B is idealized solubility, K is salting out constant, and I is ionic strength. With a higher value of constant K and ionic strength of salts, solubility of the peptide may decrease resulting in strong peptide self-assembly with increased hydrophobic effect and higher rheological properties of the peptide solution. The constant K of NaCl may be higher than the other salts. […] The results are shown in FIG. 17 for PuraMatrix® (SEQ ID NO:1) 1% solution before DMEM treatment, and in FIG. 18 for PuraMatrix® (SEQ ID NO:1) 1% hydrogels after DMEM treatment for 10 min Frequency sweep tests were performed from 1 rad/sec to 10 rad/sec at 1 Pa and the storage modulus at 1 rad/sec was selected for data.
# [3] = Rheological properties of peptide solutions at adjusted salt ionic strength
# Protocol: Based on the visual observation of the effect of salt ionic strength on the properties of the peptide solutions, the effect on the rheological properties of the peptide solutions after adjusting their ionic strength level with NaCl to 0.7 M (PuraMatrix® (SEQ ID NO:1)), 0.2 M (KLD12 (SEQ ID NO:3)) or 0.02 M (IEIK13 (SEQ ID NO:2)), which is closely below the critical ionic strength at which each peptide becomes cloudy, was evaluated. If the ionic strength levels with NaCl of peptide solutions are higher than 0.9 M (PuraMatrix® (SEQ ID NO:1)), 0.3 M (KLD12 (SEQ ID NO:3)) or 0.03 M (IEIK13 (SEQ ID NO:2)), the peptide solutions begin phase separation becoming cloudy and weak. The rheological property of PuraMatrix® (SEQ ID NO:1), KLD12 (SEQ ID NO:3) and IEIK13 (SEQ ID NO:2) solutions was higher after adjusting their ionic strength level with NaCl to 0.7 M (PuraMatrix® (SEQ ID NO:1)), 0.2 M (KLD12 (SEQ ID NO:3)) or 0.02 M (IEIK13 (SEQ ID NO:2)). The results are shown in FIG. 10 for KLD12 (SEQ ID NO:3) 1%, FIG. 11 for IEIK13 (SEQ ID NO:2) 1%, and FIG. 12 for PuraMatrix® (SEQ ID NO:1) 1%, respectively. Frequency sweep tests were performed from 1 rad/s to 10 rad/s at 1 Pa.
# as §1, with “level with NaCl to 0.7 M (PuraMatrix® (SEQ ID NO:1)), 0.2 M (KLD12 (SEQ ID NO:3)) or 0.02 M (IEIK13 (SEQ ID NO:2)),” for “levels,”, “solution at various salt ionic strengths” for “hydrogels after DMEM treatment for 10 min”, “13” for “15”, “solutions” for “hydrogels”, “14” for “16”, “solutions.” for “hydrogels, both after DMEM treatment for 10 min.”
# as §2
substance,measurement,setting,value
Ile-Glu-Ile-Lys-Ile-Glu-Ile-Lys-Ile-Glu-Ile-Lys-Ile [IEIK13],critical salt ionic strengths at which peptides become cloudy,[1],0.03˜0.04 M
same,Appearance,"[1]; CaCl2 0 M, ionic strength 0 M, conc. 1.5%","Clear, thick gel"
same,Appearance,"[1]; CaCl2 0.005 M, ionic strength 0.015 M, conc. 1.46%","Clear, thick, stiffer gel"
same,Appearance,"[1]; CaCl2 0.0067 M, ionic strength 0.02 M, conc. 1.45%","Clear, thick, stiffer gel"
same,Appearance,"[1]; CaCl2 0.0083 M, ionic strength 0.025 M, conc. 1.44%","Clear, thick, stiffer gel"
same,Appearance,"[1]; CaCl2 0.01 M, ionic strength 0.03 M, conc. 1.43%","Clear, thick, stiffer gel"
same,Appearance,"[1]; CaCl2 0.0117 M, ionic strength 0.035 M, conc. 1.41%","Clear, thick, stiffer gel"
same,Appearance,"[1]; CaCl2 0.0133 M, ionic strength 0.04 M, conc. 1.40%","Slightly cloudy, thick, stiffer gel"
same,Appearance,"[1]; CaCl2 0.015 M, ionic strength 0.045 M, conc. 1.39%","Slightly cloudy, thick, stiffer gel"
same,Appearance,"[1]; CaCl2 0.0167 M, ionic strength 0.05 M, conc. 1.37%","Slightly cloudy, brittle gel"
same,Appearance,"[1]; CaCl2 0.0183 M, ionic strength 0.055 M, conc. 1.36%","Cloudy, phase-separated"
same,Appearance,"[1]; KCl 0 M, ionic strength 0 M, conc. 1.5%","Clear, thick gel"
same,Appearance,"[1]; KCl 0.005 M, ionic strength 0.005 M, conc. 1.46%","Clear, thick, stiffer gel"
same,Appearance,"[1]; KCl 0.01 M, ionic strength 0.01 M, conc. 1.43%","Clear, thick, stiffer gel"
same,Appearance,"[1]; KCl 0.015 M, ionic strength 0.015 M, conc. 1.39%","Clear, thick, stiffer gel"
same,Appearance,"[1]; KCl 0.02 M, ionic strength 0.02 M, conc. 1.35%","Clear, thick, stiffer gel"
same,Appearance,"[1]; KCl 0.025 M, ionic strength 0.025 M, conc. 1.31%","Clear, thick, stiffer gel"
same,Appearance,"[1]; KCl 0.03 M, ionic strength 0.03 M, conc. 1.27%","Clear, thick, stiffer gel"
same,Appearance,"[1]; KCl 0.035 M, ionic strength 0.035 M, conc. 1.24%","Slightly cloudy, brittle gel"
same,Appearance,"[1]; KCl 0.04 M, ionic strength 0.04 M, conc. 1.2%","Slightly cloudy, brittle"
same,Appearance,"[1]; KCl 0.045 M, ionic strength 0.045 M, conc. 1.16%","Cloudy, phase-separated"
same,Appearance,"[1]; MgCl2 0 M, ionic strength 0 M, conc. 1.5%","Clear, thick gel"
same,Appearance,"[1]; MgCl2 0.005 M, ionic strength 0.015 M, conc. 1.46%","Clear, thick, stiffer gel"
same,Appearance,"[1]; MgCl2 0.0067 M, ionic strength 0.02 M, conc. 1.45%","Clear, thick, stiffer gel"
same,Appearance,"[1]; MgCl2 0.0083 M, ionic strength 0.025 M, conc. 1.44%","Clear, thick, stiffer gel"
same,Appearance,"[1]; MgCl2 0.01 M, ionic strength 0.03 M, conc. 1.43%","Clear, thick, stiffer gel"
same,Appearance,"[1]; MgCl2 0.0117 M, ionic strength 0.035 M, conc. 1.41%","Clear, thick, stiffer gel"
same,Appearance,"[1]; MgCl2 0.0133 M, ionic strength 0.04 M, conc. 1.40%","Slightly cloudy, thick, stiffer gel"
same,Appearance,"[1]; MgCl2 0.015 M, ionic strength 0.045 M, conc. 1.39%","Slightly cloudy, stiffer gel"
same,Appearance,"[1]; MgCl2 0.0167 M, ionic strength 0.05 M, conc. 1.37%","Slightly cloudy, brittle gel"
same,Appearance,"[1]; MgCl2 0.0183 M, ionic strength 0.055 M, conc. 1.36%","Cloudy, phase-separated"
same,Appearance,"[1]; NaCl 0 M, ionic strength 0 M, conc. 1.5%","Clear, thick gel"
same,Appearance,"[1]; NaCl 0.005 M, ionic strength 0.005 M, conc. 1.46%","Clear, thick, stiffer gel"
same,Appearance,"[1]; NaCl 0.01 M, ionic strength 0.01 M, conc. 1.43%","Clear, thick, stiffer gel"
same,Appearance,"[1]; NaCl 0.015 M, ionic strength 0.015 M, conc. 1.39%","Clear, thick, stiffer gel"
same,Appearance,"[1]; NaCl 0.02 M, ionic strength 0.02 M, conc. 1.35%","Clear, thick, stiffer gel"
same,Appearance,"[1]; NaCl 0.025 M, ionic strength 0.025 M, conc. 1.31%","Clear, thick, stiffer gel"
same,Appearance,"[1]; NaCl 0.03 M, ionic strength 0.03 M, conc. 1.27%","Slightly cloudy, thick, stiffer gel"
same,Appearance,"[1]; NaCl 0.035 M, ionic strength 0.035 M, conc. 1.24%","Slightly cloudy, brittle gel"
same,Appearance,"[1]; NaCl 0.04 M, ionic strength 0.04 M, conc. 1.2%","Cloudy, phase-separated"
same,"salt ionic strength increase that did not change the clear color, while apparent stiffness increased","[1]; depending on different salts, 1.5% peptide solutions",0.025˜0.035 M
same,ionic strength above which the rheological property of hydrogels after DMEM treatment decreases,[2]; DMEM treatment for 10 min,above 0.03 M
same,rheological property of hydrogels after DMEM treatment,"[2]; ionic strength adjustment up to 0.025 M, DMEM 10 min",did not significantly change
same,ionic strength up to which the rheological property of 1% solutions increases (decreases above),"[3]; 1% solutions, storage modulus at 1 rad/sec",up to 0.03 M
same,ionic strength level with NaCl above which solutions begin phase separation becoming cloudy and weak,[3]; NaCl,> 0.03 M
same,rheological property after adjusting ionic strength level with NaCl,"[3]; NaCl to 0.7 M (PuraMatrix), 0.2 M (KLD12) or 0.02 M (IEIK13), 1% solutions",higher
